What was measured:
[1] = target: T1, Recombinant human PDGF-BB (human, UniProt P01127 82-190); experiment: SPR (ProteOn), biotinylated PDGF-BB on neutravidin chip, DARPin injected; Kd from on- and off-rates
T1 construct: For SPR it was chemically biotinylated on primary amines and captured on neutravidin; also called PDGF-BB (human); Reliatech 200-055
Method: (§1) Biotinylated PDGF-BB molecules from human and mouse were immobilized in a flow cell through binding to coated […] and the interaction with various selected DARPins was analyzed.
(§2) SPR was measured using a ProteOn instrument (BioRad) and measurement was performed according standard procedures known to the person skilled in the art. The running buffer was PBS, pH 7.4, containing 0.005% Tween 20®. Neutravidin was covalently immobilized on a GLC chip (BioRad) to a level of about 8000 resonance units (RU). Immobilization of PDGF-BB on the neutravidin coated chip was then performed. The interaction of DARPin PDGF-BB was then measured by injecting 100 μl running buffer (PBS containing 0.005% Tween®) containing serial dilutions of DARPins of concentration of […] (on-rate measurement), followed by a running buffer flow for between 10 minutes and up to 3 hours at a constant flow rate of 30 μl/min (off-rate measurement). The signals (i.e. resonance unit (RU) values) of an uncoated reference cell and a reference injection (i.e. injection of running buffer only) were subtracted from the RU traces obtained after injection of […] (double-referencing). From the SRP traces obtained from the on-rate and off-rate measurements the on- and off-rate of the corresponding DARPin PDGF-BB interaction can be determined.
(§3) Dissociation constants (Kd) were calculated from the estimated on- and off-rates using standard procedures known to the person skilled in the art.

[2] = target: T1, Recombinant human PDGF-BB; experiment: receptor competition ELISA: DARPin preincubated with PDGF-BB, free PDGF-BB captured on coated PDGFRbeta/Fc; mean IC50
Method: The potency of PEGylated anti-PDGF-BB DARPins to inhibit the binding of human PDGF-BB to its receptor PDGFRbeta was determined in a in a receptor competition ELISA (based on PDGF-BB Quantikine, R&D Systems). PDGFRbeta/Fc chimera has been precoated on a microplate. The DARPins were preincubated in assay diluent from the PDGF-BB Quantikine kit (R&D Systems) with a defined amount of PDGF-BB and incubated at room temperature for 2 hours with shaking at 750 rpm. These preincubation mixtures were then transferred into the precoated wells and any PDGF-BB that is not blocked by the DARPins was bound by the immobilized receptor. After washing away any unbound substances, a horse radish peroxidase-linked polyclonal antibody specific for PDGF-BB was added to the wells. Following a wash to remove any unbound antibody-enzyme reagent, a substrate solution was added to the wells and color was developing in proportion to the amount of PDGF-BB bound. The color development was stopped and the intensity of the color was measured at […]. Example titration curves are given for a set of DARPins in FIG. 2. IC₅₀ values were calculated from such titration curves obtained as described above using Graph Pad Prism software and standard procedures known to the person skilled in the art.

[3] = target: T2, Recombinant murine PDGF-BB (mouse, UniProt P31240 82-190, limits assumed); experiment: SPR (ProteOn), biotinylated PDGF-BB on neutravidin chip, DARPin injected; Kd from on- and off-rates
T2 construct: For SPR chemically biotinylated on primary amines and captured on neutravidin; also called mouse PDGF-BB; PDGF-BB (mouse)
T2 sequence (P31240 82-190 limits assumed): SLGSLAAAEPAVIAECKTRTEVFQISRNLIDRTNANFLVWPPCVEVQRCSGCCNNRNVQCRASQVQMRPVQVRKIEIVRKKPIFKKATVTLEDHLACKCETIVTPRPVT
Method: as §1, §2, §3

T1 sequence (P01127 82-190 limits assumed): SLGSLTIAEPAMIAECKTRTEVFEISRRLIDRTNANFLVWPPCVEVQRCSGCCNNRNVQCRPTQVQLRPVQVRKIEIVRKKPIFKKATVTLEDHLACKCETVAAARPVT

Binder	Kd [1]	IC50 [2]	Kd [3]
DARPin #29 (designed binder) MRGSHHHHHHGSDLGKKLLEAARAGQDDEVRILLKAGADVNAKDEEGTTPLHYAAVWGHLEIVEVLLKAGADVNAQDIYGATPADLAALVGHEDIAEVLQKLN	0.105 nM	0.015 nM	–
DARPin #37 (designed binder) MRGSHHHHHHGSDLGWKLLEAARTGQDDEVRILLAAGADVNAKDITGTTPLHYAAAWGHMEIVEVLLKTGADVNAQDLYGATPADLAALLGHEDIAEVLQKLN	0.152 nM	> 0.4 nM	0.0828 nM
DARPin #33 (designed binder) MRGSHHHHHHGSDLGHKLLQAAEQGQDDEVRILLAAGADVNAKDEYGTTPLHFAAVWGHLEIVEVLLKAGADVNAQDVFGATPADLAAYVGHEDIAEVLQKLN	0.0806 nM	–	0.0904 nM
DARPin #26 (designed binder) MRGSHHHHHHGSDLGKKLLEAARAGQDDEVRILLAAGADVNAKDEEGTTPLHYAAVWGHLEIVEVLLKAGADVNAQDIYGATPADLAALVGHEDIAEILQKLN	0.0177 nM	–	0.0174 nM
DARPin #40 (designed binder) MRGSHHHHHHGSDLGYKLLSAAQYGQDDEVRILLAAGADVNAKDYSGTTPLHYAATWGHLEIVEVLLKAGADVNAQDIYGATPADLAALIGHEDIAEVLQKLN	0.0344 nM	–	0.0608 nM
DARPin #36 (designed binder) MRGSHHHHHHGSDLGSKLLTAALDGQDDEVRILLAAGADVNAKDEEGTTPLHYAAVVGHLEIVEVLLKAGADVNAQDIWGATPADLAALVGHEDIAEVLQKLN	0.0242 nM	–	0.053 nM
DARPin #31 (designed binder) MRGSHHHHHHGSDLGKKLLEAARAGQDDEVRELLKAGADVNAKDEEGTTPLHYAAVFGHLEIVEVLLKAGADVNAQDIYGATPADLAALVGHEDIAEVLQKLN	0.109 nM	0.48 nM	–
DARPin #32 (designed binder) MRGSHHHHHHGSDLGHKLLQAAKHGQDDEVRILLAAGADVNAKDDEGTTPLHYAAVWGHLEIVEVLLKAGADVNAQDAYGATPADLAAFLGHEDIAEVLQKLN	0.0638 nM	–	0.0834 nM
DARPin #25 (designed binder) MRGSHHHHHHGSDLGKKLLEAARAGQDDEVRILMANGADVNAKDEEGTTPLHYAAVWGHLEIVEVLLKAGADVNAQDIYGATPADLAALVGHEDIAEILQKLN	0.0147 nM	–	0.0128 nM
DARPin #35 (designed binder) MRGSHHHHHHGSDLGQKLLYAAEHGQDDEVRILLAAGADVNAKDQTGSTPLHYAAVWGHMEIVEVLLKAGADVNAQDLWGATPADLAAFLGHEDIAVVLQKLN	0.0956 nM	–	0.0981 nM
DARPin #51 (designed binder) MRGSHHHHHHGSDLGKKLLEAARAGQDDEVRILMANGADVNAKDLNGQTPLHLAADIGHLEIVEVLLKAGADVNAKDYAGSTPLRLAAWAGHLEIVEVLLKAGADVNAKDYFGYTPLHLAAYFGHLEIVEVLLKAGADVNAQDKFGKTAFDISIDNGNEDLAEILQKLN	0.121 nM	0.008 nM	–
DARPin #54 (designed binder) MRGSHHHHHHGSDLGKKLLEAARAGQDDEVRILMANGADVNAKDLNGQTPLHLAADIGHLEIVEVLLKAGADVNAKDYAGSTPLRLAAWAGHLEIVEVLLKAGADVNAKDYFGYTPLHLAAYFGHLEIVEVLLKAGADVNAQDKSGKTPADLAADAGHEDIAEVLQKLN	0.245 nM	0.21 nM	–
DARPin #55 (designed binder) MRGSHHHHHHGSDLGKKLLEAARAGQDDEVRILLKAGADVNAKDLNGQTPLHLAADIGHLEIVEVLLKAGADVNAKDYAGSTPLRLAAWAGHLEIVEVLLKAGADVNAKDYFGYTPLHLAAYFGHLEIVEVLLKAGADVNAQDKFGKTAFDISIDNGNEDLAEILQKLN	0.0555 nM	0.014 nM	–
DARPin #53 (designed binder) MRGSHHHHHHGSDLDKKLLEAARAGQDDEVRILMANGADVNAKDLNGQTPLHLAADIGHLEIVEVLLKAGADVNAKDYAGSTPLRLAAWAGHLEIVEVLLKAGADVNAKDYFGYTPLHLAAYFGHLEIVEVLLKAGADVNAQDKFGKTPADIAADNGHEDIAEVLQKLN	0.128 nM	0.036 nM	–
DARPin #56 (designed binder) MRGSHHHHHHGSDLDKKLLEAARAGQDDEVRILLKAGADVNAKDLNGQTPLHLAADIGHLEIVEVLLKAGADVNAKDYAGSTPLRLAAWAGHLEIVEVLLKAGADVNAKDYFGYTPLHLAAYFGHLEIVEVLLKAGADVNAQDKFGKTPADIAADNGHEDIAEVLQKLN	0.15 nM	0.17 nM	–
DARPin #47 (designed binder) MRGSHHHHHHGSDLGKKLLEAARAGQDDEVRILLKAGADVNAKDKSGHTPLHLAAYSGHLEIVEVLLKAGADVNAKDQEGTTPLHFAASVGHLEIVEVLLKAGADVNAQDHYGATPADLAALIGHEDIAEVLQKLN	0.0937 nM	0.14 nM	–
DARPin #46 (designed binder) MRGSHHHHHHGSDLGKKLLEAARAGQDDEVRILMANGADVNAKDKSGHTPLHLAAYSGHLEIVEVLLKAGADVNAKDQEGTTPLHFAASVGHLEIVEVLLKAGADVNAQDHYGATPADLAALIGHEDIAEVLQKLN	0.112 nM	0.15 nM	–
DARPin #45 (designed binder) MRGSHHHHHHGSDLGKKLLEAARAGQDDEVRELLKAGADVNAKDKSGHTPLHLAAYSGHLEIVEVLLKAGADVNAKDQEGTTPLHFAASVGHLEIVEVLLKAGADVNAQDHYGATPADLAALIGHEDIAEVLQKLN	0.108 nM	0.16 nM	–
DARPin #57 (designed binder) MRGSHHHHHHGSDLGKKLLEAARAGQDDEVRILLKAGADVNAKDLNGQTPLHLAADIGHLEIVEVLLKAGADVNAKDYAGSTPLRLAAWAGHLEIVEVLLKAGADVNAKDYFGYTPLHLAAYFGHLEIVEVLLKAGADVNAQDKSGKTPADLAADAGHEDIAEVLQKLN	0.123 nM	0.204 nM	–
DARPin #58 (designed binder) MRGSHHHHHHGSDLGKKLLEAARAGQDDEVRELLKAGADVNAKDLNGQTPLHLAADIGHLEIVEVLLKAGADVNAKDYAGSTPLRLAAWAGHLEIVEVLLKAGADVNAKDYFGYTPLHLAAYFGHLEIVEVLLKAGADVNAQDKSGKTPADLAADAGHEDIAEVLQKLN	0.257 nM	0.47 nM	–
DARPin #42 (designed binder) MRGSHHHHHHGSDLGYKLLFAAYVGQDDEVRILLAAGADVNAKDRHGRTPLHLAAWEGHLEIVEVLLKAGADVNAKDDEGTTPLHLLAAWEGHLEIVEVLLKAGADVNAQDVYGATPADLAAYIGHEDIAEVLQKLN	0.0805 nM	–	0.0974 nM
DARPin #43 (designed binder) MRGSHHHHHHGSDLGLKLLEAAQRGQDDEVRILLAAGADVNAKDREGWTPLHVAAYEGHLEIVEVLLKAGADVNAKDYTGLTPLHVAAVWGHLEIVEVLLKAGADVNAQDIYGATPADLAAYIGHEDIAEVLQKLN	1290 nM	–	1510 nM
DARPin #52 (designed binder) MRGSHHHHHHGSDLGKKLLEAARAGQDDEVRILMANGADVNAQDLNGQTPLHLAADIGHLEIVEVLLKHGADVNAQDYAGSTPLRLAAWAGHLEIVEVLLKNGADVNANDYFGYTPLHLAAYFGHLEIVDVLLKHGADVNAQDKFGKTPADIAADNGHEDIAEVLQKLN	–	0.068 nM	–
